Experimental data reported in publication PMC11321638 (Advanced Science, 2024).

System: HT22 nerve cell
Type: cell-based, Mouse

## Botulinum Toxin Type A [Botox]
  induction of apoptosis in HT22 cells: dose‐dependent induction of apoptosis
  necrocytosis of HT22 cells: neither RSI prion nor Botox induced necrocytosis
